Biological target: unlabelled HP1α (human, UniProt P45973 1-191)
Sequence (P45973 whole entry): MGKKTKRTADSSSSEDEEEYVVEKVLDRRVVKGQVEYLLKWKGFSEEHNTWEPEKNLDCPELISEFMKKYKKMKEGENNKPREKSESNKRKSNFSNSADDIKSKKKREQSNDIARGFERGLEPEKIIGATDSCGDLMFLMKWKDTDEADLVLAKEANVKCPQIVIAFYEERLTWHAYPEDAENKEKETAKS

For ARTKQTARKSTGGK (trimethyl-lysine at K9) [H3K9me3 1–14 peptide], the Kd was 7.57 µM.
